pKd: −log10 of the molar value.
Columns and labels:
human IgE (human) [1] = test: SPR Biacore T200, 37 C; pH 5.8, […] Ca
human IgE (human) [2] = test: SPR Biacore T200, 37 C; pH 7.4, […] Ca
human IgE (human) [3] = test: SPR Biacore T200, 37 C; pH 5.8, 3 microM Ca
human IgE (human) [4] = test: SPR Biacore T200, 37 C; ratio of KD, pH dependency
human IgE (human) [5] = test: SPR Biacore T200, 37 C; ratio of KD, pH/Ca dependency

Chain of human IgE (human) (heavy, as listed by the source, chain 1 of 2, other chains not shown): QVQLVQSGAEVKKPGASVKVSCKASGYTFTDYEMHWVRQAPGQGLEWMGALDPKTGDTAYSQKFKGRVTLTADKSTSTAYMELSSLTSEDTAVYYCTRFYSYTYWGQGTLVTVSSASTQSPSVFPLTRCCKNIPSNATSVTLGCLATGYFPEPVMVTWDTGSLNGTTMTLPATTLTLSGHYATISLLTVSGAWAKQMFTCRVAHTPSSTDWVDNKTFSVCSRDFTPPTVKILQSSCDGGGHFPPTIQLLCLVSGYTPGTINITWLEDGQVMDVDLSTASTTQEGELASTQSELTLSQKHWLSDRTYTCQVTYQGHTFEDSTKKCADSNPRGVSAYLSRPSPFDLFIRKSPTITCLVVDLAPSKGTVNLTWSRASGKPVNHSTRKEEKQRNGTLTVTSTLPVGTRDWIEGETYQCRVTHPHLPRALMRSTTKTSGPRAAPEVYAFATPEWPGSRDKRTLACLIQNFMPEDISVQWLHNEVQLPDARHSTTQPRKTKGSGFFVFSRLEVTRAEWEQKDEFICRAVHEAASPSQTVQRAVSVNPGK

pKd (human IgE (human) [1]): 8.00
koff (human IgE (human) [1]): 0.024 s⁻¹
kon (human IgE (human) [1]): 2.4e+06 M⁻¹ s⁻¹
pKd (human IgE (human) [2]): 8.36
koff (human IgE (human) [2]): 0.011 s⁻¹
kon (human IgE (human) [2]): 2.5e+06 M⁻¹ s⁻¹
pKd (human IgE (human) [3]): 7.89
koff (human IgE (human) [3]): 0.017 s⁻¹
kon (human IgE (human) [3]): 1.4e+06 M⁻¹ s⁻¹
KD (pH 5.8, 1.2 mM Ca)/KD (pH 7.4, 1.2 mM Ca) (human IgE (human) [4]): 2.3
KD (pH 5.8, 3 microM Ca)/KD (pH 7.4, 1.2 mM Ca) (human IgE (human) [5]): 2.9
Substance: Xolair (omalizumab; Novartis) (antibody)

— patent US20140363428A1
